Residue numbers refer to the chain shown, from its start.

Sequences and labels used below:
B1: 366_G09 (antibody, V domains shown)
VH: EVQLLESGGGLVQPGGSLRLSCAASGFTFDDYSMNWVRQAPGKGLEWVASINYNSGYTGYADSVKGRFTISRDNSKNTLYLQMNSLRAEDTAVYYCARGATWHDTHLDYWGQGTLVTVSS
VL: DIQMTQSPSSLSASVGDRVTITCRASQSILSYVNWYQQKPGKAPKLVIYAATSRASGVPSRFSGSGSGTDFTLTISSLQPEDFATYYCQQSYDLPLTFGGGTKVEIK
B2: 369_C12 (antibody, V domains shown)
VH: B1 VH with D30S, D31S, S33G, S50N, S55G, T58K
VL: B1 VL with S31T, V33L, V47L, A55H, L94T
B3: 368_H11 (antibody, V domains shown)
VH: B1 VH with D31S, S33G, N35H, S55G, G59S
VL: B1 VL with V33L, V47L, Y92D, L94T
B4: 368_D02 (antibody, V domains shown)
VH: B1 VH with S33G, A49S, S50N, S55G
VL: B1 VL with L30S, S31T, V33L, A55H, L94T
B5: 367_D09 (antibody, V domains shown)
VH: B1 VH with D31S, S33G, S55G, T58K, G59S
VL: B1 VL with S31T, V33L, V47L, R54L, L94N
B6: 371_E08 (antibody, V domains shown)
VH: B1 VH with D30S, D31S, A49S, S50N, T58K, G59S
VL: B1 VL with L30V, A55H
B7: 369_E08 (antibody, V domains shown)
VH: B1 VH with D30S, D31S
VL: B1 VL with S31T, V47L, L94S
B8: 368_H06 (antibody, V domains shown)
VH: B1 VH with D31S, S33G, N35H, S50N, S55G, T58K, G59S
VL: B1 VL with S31T, V47L, A51T, L94N
B9: 368_D12 (antibody, V domains shown)
VH: B1 VH with D30S, D31S, S33G, A49S, S55G, G59S
VL: B1 VL with D93N, L94N
B10: 368_G03 (antibody, V domains shown)
VH: B1 VH with D30S, D31S, A49S, S50G, G59S, H106A
VL: B1 VL with V33L, L94T
B11: 370_F12 (antibody, V domains shown)
VH: B1 VH with D30S, S50N, S55G
VL: B1 VL with V33L, V47L, T52S, R54L, A55Q, L94S
B12: 369_H12 (antibody, V domains shown)
VH: B1 VH with D30S, D31S, S50G, S55G, T58K, G59S
VL: B1 VL with L30V, S31T, L94S
B13: 369_A11 (antibody, V domains shown)
VH: B1 VH with D31S, S33G, S50N, S55G, T58K
VL: B1 VL with L30I, S31T, V33L, A55H, D93E, L94S
B14: 370_D09 (antibody, V domains shown)
VH: B1 VH with D30S, A49S, S50G, G59S
VL: B1 VL with L30V, S31T, V33L, L94T
B15: 371_E09 (antibody, V domains shown)
VH: B1 VH with D30S, A49S, S50G, G59S
VL: B1 VL with S31T, V33L, V47L, D93N, L94S
B16: 367_B06 (antibody, V domains shown)
VH: B1 VH with D30S, D31S, S50N, S55G
VL: B1 VL with L30I, R54L, A55H, D93N, L94S
B17: 368_F06 (antibody, V domains shown)
VH: B1 VH with N35H, S50N
VL: B1 VL with V33L, A51T, D93E, L94N
B18: 369_H02 (antibody, V domains shown)
VH: B1 VH with A49S, S50N, S55G, T58K, G59S
VL: B1 VL with L30I, V33L, V47L, L94S
B19: 370_F01 (antibody, V domains shown)
VH: B1 VH with D30S, D31S, S33G, A49S, S50N, S55G, G59S
VL: B1 VL with L30V, V33L, V47L, L94S
B20: 370_H06 (antibody, V domains shown)
VH: B1 VH with S50N, S55G
VL: B1 VL with S31T, V33L, V47L, D93E, L94T
B21: 370_C07 (antibody, V domains shown)
VH: B1 VH with D30S, D31S, S50N, S55G, T58K, G59S
VL: B1 VL with V33L, V47L, A55H, D93E, L94S
B22: 369_G05 (antibody, V domains shown)
VH: B1 VH with D30S, D31S, S50G, S55G, G59S
VL: B1 VL with L30V, V33L, V47L, A55H, L94S
B23: 370_F02 (antibody, V domains shown)
VH: B1 VH with D31S, S33G, S50N, S55G
VL: B1 VL with V33L, V47L, A51V, A55H, L94S
B24: 371_C07 (antibody, V domains shown)
VH: B1 VH with D31S, S33G, A49S, S50N, S55G, H106A
VL: B1 VL with V33L, V47L, R54L, L94T
B25: 367_D05 (antibody, V domains shown)
VH: B1 VH with D30S, A49S, S55G, T58K, G59S
VL: B1 VL with L30I, R54L, L94S
B26: 369_H08 (antibody, V domains shown)
VH: B1 VH with D30S, D31S, S50G, T58K, G59S
VL: B1 VL with R54L, D93E, L94S
B27: 369_F09 (antibody, V domains shown)
VH: B1 VH with D30S, D31S, S33G, N35H, S50G, S55G, G59S
VL: B1 VL with S31T, V47L, L94S
B28: 368_C11 (antibody, V domains shown)
VH: B1 VH with D30S, A49S, T58K, G59S
VL: B1 VL with L30I, V33L, V47L, L94N
B29: 370_D03 (antibody, V domains shown)
VH: B1 VH with D30S, D31S, S55G, G59S
VL: B1 VL with L30I, S31T, V33L, V47L
B30: 369_E05 (antibody, V domains shown)
VH: B1 VH with D30S, S33G, S50N, S55G, T58K, G59S
VL: B1 VL with S31T, V33L, V47L, R54L, D93E, L94T
B31: 370_G08 (antibody, V domains shown)
VH: B1 VH with D30S, S50G, S55G
VL: B1 VL with S31T, V33L, D93E, L94S
B32: 367_C08 (antibody, V domains shown)
VH: B1 VH with D31S, N35H, S50G, S55G, G59S
VL: B1 VL with S31T, V33L, V47L, R54L, Y92D, D93S, L94N
B33: 371_E12 (antibody, V domains shown)
VH: B1 VH with D31S, A49S, S50G, T58K, G59S
VL: B1 VL with V33L, V47L, R54L, L94T
B34: 370_E05 (antibody, V domains shown)
VH: B1 VH with D30S, D31S, S33G, A49S, S50N, S55G, T58K
VL: B1 VL with L30S, S31T, V33L, A51V, D93N, L94S
B35: 371_B01 (antibody, V domains shown)
VH: B1 VH with D31S, A49S, S50N
VL: B1 VL with V47L, R54L
B36: 367_E07 (antibody, V domains shown)
VH: B1 VH with D30S, A49S, S55G, T58K
VL: B1 VL with D93E, L94N
B37: 369_D08 (antibody, V domains shown)
VH: B1 VH with D30S, S55G, T58K
VL: B1 VL with S31T, V33L, V47L, L94T
B38: 370_H04 (antibody, V domains shown)
VH: B1 VH with D30S, D31S, A49S, S50N, S55G
VL: B1 VL with V47L
B39: 368_G10 (antibody, V domains shown)
VH: B1 VH with D30S, D31S, N35H, A49S, S55G, G59S
VL: B1 VL with L30V, L94T
B40: 371_C06 (antibody, V domains shown)
VH: B1 VH with D30S, D31S, A49S, S55G, G59S
VL: B1 VL with L30S, V33L, V47L, A51V
B41: 367_A02 (antibody, V domains shown)
VH: B1 VH with D31S, S33G, A49S, T58K
VL: B1 VL with L30I, V33L, V47L, A51V, L94T
B42: 370_B08 (antibody, V domains shown)
VH: B1 VH with D30S, S50N, S55G
VL: B1 VL with V33L, V47L, T52S, R54L, A55Q, L94S
B43: 367_F09 (antibody, V domains shown)
VH: B1 VH with D31S, N35H, S50G, S55G, G59S
VL: B1 VL with S31T, V33L, V47L, R54L, Y92D, D93S, L94N
B44: 370_E04 (antibody, V domains shown)
VH: B1 VH with D30S, D31S, S50N, S55G, T58K
VL: B1 VL with S31T, V33L, V47L, A51V, R54L, A55H, D93E, L94T
B45: 369_F05 (antibody, V domains shown)
VH: B1 VH with D30S, D31S, A49S, S50G, S55G, T58K, G59S
VL: B1 VL with L30S, V33L, V47L, T52S, R54L, A55Q, S91G, L94S

In the experiment the target is Human Fc (human). Put plainly: ELISA; negative control.
Molecule B1 came in with an optical density of 0.291 OD.
The value for B2 was 0.418 OD; that for B3 was 0.355 OD; that for B4 was 0.321 OD.
B5 came in with an optical density of 0.381 OD.
B6 had an optical density of 0.251 OD.
The value for B7 was 0.272 OD.
The value for B8 was 0.311 OD; that for B9 was 0.329 OD.
With B10, the optical density is 0.312 OD.
The value for B11 was 0.457 OD; that for B12 was 0.414 OD.
B13 returned an optical density of 0.366 OD.
The value for B14 was 0.287 OD; that for B15 was 0.306 OD.
The value for B16 was 0.378 OD; that for B17 was 0.249 OD; that for B18 was 0.408 OD.
For B19, the optical density was 0.407 OD.
The value for B20 was 0.358 OD; that for B21 was 0.316 OD.
The value for B22 was 0.384 OD; that for B23 was 0.376 OD.
Consider B24, for which the optical density was 0.287 OD.
The value for B25 was 0.265 OD.
Next, B26: 0.389 OD.
In turn, B27 had an optical density of 0.5 OD.
On to B28, for which the optical density turned out to be 0.275 OD.
Turning to B29, the optical density was 0.57 OD.
The value for B30 was 0.282 OD; that for B31 was 0.364 OD.
The value for B32 was 0.278 OD; that for B33 was 0.398 OD; that for B34 was 0.427 OD.
The value for B35 was 0.464 OD.
In turn, B36 returned an optical density of 0.221 OD.
Next, B37: 0.241 OD; B38: 0.596 OD.
The value for B39 was 0.356 OD.
On to B40, for which the optical density worked out at 0.308 OD.
The value for B41 was 0.305 OD; that for B42 was 0.302 OD; that for B43 was 0.289 OD.
With B44, the optical density is 0.292 OD.
Next, B45: 0.331 OD.

The record behind these values is patent US20210380703A1.
